Test results as given in doi:10.1101/2024.08.19.608718, “The structural basis for RNA slicing by human Argonaute2”.

Biological target: HsAGO2 D669A (catalytically dead) (Homo sapiens, UniProt Q9UKV8 1-859, D669A)
Assay: cryo-EM (3.3 A); 1 mM Mg2+; one Mg modelled; Dissociation filter binding: 17.6 mM HEPES pH 7.4, 97.8 mM KOAc, 0.978 mM Mg(OAc)2, 5 mM DTT, BSA, yeast tRNA, 0.01% IGEPAL, 1.6% glycerol, 37 C; cryo-EM complex: 50 mM Tris pH 7.5, 150 mM NaCl, 1 mM MgCl2, 2% glycerol, 0.5 mM TCEP (target bound at 25 C in 10% glycerol)
Conditions: protein: recombinant; tags: 3xFLAG-SUMOEu1, cleaved off by SENPEuB; label: biotin on target 3' end (click, diazo biotin azide); guide-target paired from g2 to g22; target overhangs 5' 3 nt and 3' 3 nt; g1 not paired

Sequence of HsAGO2 D669A (catalytically dead) (Q9UKV8 whole entry D669A): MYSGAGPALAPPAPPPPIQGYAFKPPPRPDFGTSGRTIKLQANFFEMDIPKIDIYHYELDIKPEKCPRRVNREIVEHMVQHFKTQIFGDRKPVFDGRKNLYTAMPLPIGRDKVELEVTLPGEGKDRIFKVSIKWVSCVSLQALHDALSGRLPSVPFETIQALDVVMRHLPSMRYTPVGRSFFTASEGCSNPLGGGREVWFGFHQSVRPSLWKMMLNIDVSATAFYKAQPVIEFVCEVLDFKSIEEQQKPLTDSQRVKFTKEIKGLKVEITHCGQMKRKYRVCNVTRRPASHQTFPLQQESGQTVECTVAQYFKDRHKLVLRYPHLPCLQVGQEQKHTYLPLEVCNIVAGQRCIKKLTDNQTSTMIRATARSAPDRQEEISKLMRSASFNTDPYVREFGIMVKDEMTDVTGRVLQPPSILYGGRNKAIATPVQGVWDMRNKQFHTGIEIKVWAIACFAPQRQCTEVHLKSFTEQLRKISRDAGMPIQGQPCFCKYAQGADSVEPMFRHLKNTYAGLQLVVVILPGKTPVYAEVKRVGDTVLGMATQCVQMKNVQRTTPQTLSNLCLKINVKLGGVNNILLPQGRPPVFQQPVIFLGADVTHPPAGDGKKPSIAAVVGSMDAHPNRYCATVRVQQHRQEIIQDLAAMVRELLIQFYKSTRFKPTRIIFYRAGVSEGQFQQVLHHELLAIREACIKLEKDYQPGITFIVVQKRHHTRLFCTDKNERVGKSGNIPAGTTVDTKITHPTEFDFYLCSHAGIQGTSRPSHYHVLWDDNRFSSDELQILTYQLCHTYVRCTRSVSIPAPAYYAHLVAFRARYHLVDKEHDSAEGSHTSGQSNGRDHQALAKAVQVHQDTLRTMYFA

B1: miR-7 guide (22 nt) / fully complementary target (dsRNA)
RNA 1: UGGAAGACUAGUGAUUUUGUUG
RNA 2: UUUCAACAAAAUCACUAGUCUUCCAAAU
modifications: guide 5'-phosphate; target nt 1-3 (U) and 26-27 (A) 2'-O-methyl; 3'-terminal nt is deoxyuridine with 5-octadiynyl
binding result: binds
